In ChEMBL document CHEMBL1135259, “Azapeptides as inhibitors of the hepatitis C virus NS3 serine protease” (Bioorg Med Chem Lett, 2002):

Tests used:
Details in all cases: Hepacivirus hominis
[1] = substrate: CCCN(NC(=O)[C@H]1CCCN1C(=O)[C@@H](NC(=O)[C@@H](NC(=O)[C@H](CC(=O)O)NC(=O)[C@H](CCC(=O)O)NC(=O)[C@@H](NC(C)=O)[C@@H](C)O)C(C)C)C(C)C)C(=O)Oc1ccc([N+](=O)[O-])cc1; test: Binding affinity against Hepatitis C virus NS3 protease
[2] = substrate: CCCN(NC(=O)[C@H]1CCCN1C(=O)[C@@H](NC(=O)[C@@H](NC(=O)[C@H](CC(=O)O)NC(=O)[C@H](CCC(=O)O)NC(=O)[C@@H](NC(=O)[C@H](CC(=O)O)NC(C)=O)[C@@H](C)O)C(C)C)C(C)C)C(=O)Oc1ccc([N+](=O)[O-])cc1; test: Michaelis-Menten constant against Hepatitis C virus NS3 protease and represented as Km
[3] = substrate: CCCC(NC(=O)[C@H]1CCCN1C(=O)[C@@H](NC(=O)[C@@H](NC(=O)[C@H](CC(=O)O)NC(=O)[C@H](CCC(=O)O)NC(=O)[C@@H](NC(=O)[C@H](CC(=O)O)NC(C)=O)[C@@H](C)O)C(C)C)C(C)C)C(=O)Oc1ccc([N+](=O)[O-])cc1; test: (§1) Michaelis-Menten constant was determined against Hepatitis C virus NS3 protease and represented as Km
[4] = substrate: CCCN(NC(=O)[C@H]1CCCN1C(=O)[C@@H](NC(=O)[C@@H](NC(=O)[C@H](CC(=O)O)NC(=O)[C@H](CCC(=O)O)NC(C)=O)C(C)C)C(C)C)C(=O)Oc1ccc([N+](=O)[O-])cc1; test: as §1
[5] = substrate: CCCN(NC(=O)[C@H]1CCCN1C(=O)[C@@H](NC(=O)[C@@H](NC(C)=O)C(C)C)C(C)C)C(=O)Oc1ccc([N+](=O)[O-])cc1; test: as §1
[6] = substrate: CCCN(NC(=O)[C@H]1CCCN1C(=O)[C@@H](NC(=O)[C@@H](NC(=O)[C@H](CC(=O)O)NC(C)=O)C(C)C)C(C)C)C(=O)Oc1ccc([N+](=O)[O-])cc1; test: as §1

B1: NS3 (Hepatitis C virus), A3EZJ3 (protein)
chain: APITAYAQQTRGLLGCIITGLTGRDKNQVEGEVQIVSTAAQTFLATCINGVCWTVYHGAGTRTIASSKGPVIQMYTNVDQDLVGWPAPQGARSLTPCTCGSSDLYLVTRHADVIPVRRRGDGRGSLLSPRPISYLKGSSGGPLLCPAGHAVGIFRAAVCTRGVAKAVDFIPVEGLETTMRSPVFSDNSSPPAVPQSYQVAHLHAPTGSGKSTKVPAAYAAQGYKVLVLNPSVAATLGFGAYMSKAHGIDPNIRTGVRTITTGSPITYSTYGKFLADGGCSGSAYDIIICDECHSTDATSILGIGTVLDQAETAGARLTVLATATPPGSVTVPHPNIEEVALSTTGEIPFYGKAIPLEAIKGGRHLIFCHSKKKCDELAAKLVALGVNAVAYYRGLDVSVIPASGDVVVVATDALMTGFTGDFDSVIDCNTCVTQTVDFSLDPTFTIETTTLPQDAVSRTQRRGRTGRGKPGIYRFVTPGERPSGMFDSSVLCECYDAGCAWYELTPAETTVRLRAYMNTPGLPVCQDHLEFWEGVFTGLTHIDAHFLSQTKQSGENLPYLVAYQATVCARAQAPPPSWDQMWKCLIRLKPTLHGPTPLLYRLGAVQNEITLTHPITKYIMTCMSADLEVVT
Km [1]: 5 µM | Km [2]: 5 µM | Km [3]: 4 µM | Km [4]: 4 µM | Km [5]: 100 µM | Km [6]: 9 µM
